Test results reported in PMC11535475 (2024).

T1: SARS-CoV-2 N protein peptide on HLA-A*11:01 (human)
T1 peptide: QQQQGQTVTK

T2: SARS-CoV-2 N protein peptide on HLA-A*11:01 (human)
T2 peptide: ATEGALNTPK


Molecular target: T1, SARS-CoV-2 N protein peptide on …
Experiment: activation reporter or marker

| Binder | binding result |
| --- | --- |
| TCR-23-2 (TCR) alpha TRAV6 TRAJ21 CDR3: CALWDFNKFYF beta TRBV27 TRBJ2-5 CDR3: CASSPYSGGQGETQYF | recognises |

Each binder was assayed against SARS-CoV-2 N protein peptide on HLA-A*11:01 (human) (assay: activation reporter or marker).

| Binder | binding result |
| --- | --- |
| TCR-03 (TCR) alpha TRAV38-2/DV8 TRAJ30 CDR3: CAYRSVPLNRDDKIIF beta TRBV19 TRBJ1-5 CDR3: CASSKSGTGYQPQHF | recognises |
| TCR-08 (TCR) alpha TRAV19 TRAJ33 CDR3: CALSEAVDSNYQLIW beta TRBV7-9 TRBJ1-2 CDR3: CASSLRQGPNYGYTF | recognises |
| TCR-09 (TCR) alpha TRAV29/DV5 TRAJ43 CDR3: CAASPEYNNNDMRF beta TRBV18 TRBJ2-3 CDR3: CASSRTLGTSGNTQYF | recognises |
| TCR-10 (TCR) alpha TRAV29/DV5 TRAJ48 CDR3: CAASDENEKLTF beta TRBV6-6 TRBJ2-1 CDR3: CASKGGGTSGYEQFF | recognises |
| TCR-17 (TCR) alpha TRAV29/DV5 TRAJ30 CDR3: CAARTGDDKIIF beta TRBV10-3 TRBJ1-5 CDR3: CAINKQGFNQPQHF | recognises |
| TCR-18 (TCR) alpha TRAV6 TRAJ45 CDR3: CALDGSGGGADGLTF beta TRBV7-8 TRBJ1-3 CDR3: CASSPGRSGNTIYF | recognises |
| TCR-19 (TCR) alpha TRAV29/DV5 TRAJ30 CDR3: CAAMSMNRDDKIIF beta TRBV4-1 TRBJ2-1 CDR3: CASSRLPGLAGGTVVNEQFF | recognises |
| TCR-20 (TCR) alpha TRAV13-1 TRAJ47 CDR3: CAAIQEYGNKLVF beta TRBV5-5 TRBJ2-2 CDR3: CASSPRTLFTGELFF | recognises |
| TCR-22 (TCR) alpha TRAV19 TRAJ49 CDR3: CALSEALNTGNQFYF beta TRBV3-1 TRBJ1-6 CDR3: CASSQVAYSPLHF | recognises |
| TCR-24 (TCR) alpha TRAV29/DV5 TRAJ48 CDR3: CAASEAGGNEKLTF beta TRBV15 TRBJ1-5 CDR3: CATSREQAGQPQHF | recognises |
| TCR-29-1 (TCR) alpha TRAV3 TRAJ33 CDR3: CAVRRLMDSNYQLIW beta TRBV7-6 TRBJ2-1 CDR3: CASSHGTSGSSHEQFF | recognises |
| TCR-33 (TCR) alpha TRAV19 TRAJ15 CDR3: CALSEAEAGTALIF beta TRBV6-2 TRBJ1-2 CDR3: CASSYGSVYGYTF | recognises |
| TCR-37-1 (TCR) alpha TRAV5 TRAJ5 CDR3: CAESDMDMGRRALTF beta TRBV7-3 TRBJ2-3 CDR3: CASSRRASGIGTDTQYF | recognises |
| TCR-38-1 (TCR) alpha TRAV8-6 TRAJ29 CDR3: CAVTTDSGNTPLVF beta TRBV11-2 TRBJ2-1 CDR3: CASSPAFGEQFF | recognises |

Molecular target: T2, SARS-CoV-2 N protein peptide on …
Experiment: activation reporter or marker

| Binder | binding result |
| --- | --- |
| TCR-28 (TCR) alpha TRAV19 TRAJ54 CDR3: CALSEAYQGAQKLVF beta TRBV9 TRBJ2-5 CDR3: CASSVGGTVQETQYF | recognises |
| TCR-32 (TCR) alpha TRAV3 TRAJ8 CDR3: CAVRVYTGFQKLVF beta TRBV9 TRBJ2-3 CDR3: CASSSNLQGADTQYF | recognises |
| TCR-34-1 (TCR) alpha TRAV14/DV4 TRAJ6 CDR3: CAMREGSKGSYIPTF beta TRBV28 TRBJ2-7 CDR3: CASRLNPGTVSYEQYF | recognises |
